Test results reported in paper PMC11352701.

Target: dFMRP (dFmr1-PD) (UniProt Q9NFU0 1-684)
Experiment: EMSA

Sequence of dFMRP (dFmr1-PD) (Q9NFU0 whole entry): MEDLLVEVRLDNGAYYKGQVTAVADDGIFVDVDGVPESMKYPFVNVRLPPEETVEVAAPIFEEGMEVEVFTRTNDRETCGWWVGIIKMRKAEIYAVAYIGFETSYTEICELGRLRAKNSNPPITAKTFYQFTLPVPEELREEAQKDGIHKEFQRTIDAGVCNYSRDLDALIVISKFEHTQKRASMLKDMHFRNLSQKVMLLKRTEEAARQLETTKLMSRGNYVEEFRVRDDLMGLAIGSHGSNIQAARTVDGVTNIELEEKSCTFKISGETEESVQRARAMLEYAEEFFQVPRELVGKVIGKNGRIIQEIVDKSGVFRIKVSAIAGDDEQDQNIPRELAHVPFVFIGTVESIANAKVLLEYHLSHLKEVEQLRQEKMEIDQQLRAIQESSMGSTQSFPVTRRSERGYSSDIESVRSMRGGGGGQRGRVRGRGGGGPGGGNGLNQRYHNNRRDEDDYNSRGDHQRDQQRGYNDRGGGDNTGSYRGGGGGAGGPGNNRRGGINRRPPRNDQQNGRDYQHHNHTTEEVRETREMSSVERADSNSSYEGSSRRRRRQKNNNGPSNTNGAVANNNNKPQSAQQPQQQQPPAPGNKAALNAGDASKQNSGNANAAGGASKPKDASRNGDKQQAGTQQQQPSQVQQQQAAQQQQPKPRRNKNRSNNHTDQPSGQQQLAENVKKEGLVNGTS

B1: A14 control RNA (ssRNA)
RNA: AAAAAAAAAAAAAA
Q: Does B1 bind?
A: no binding
